Measurements as given in patent publication US20100273979A1 (Affibody, published 2010).

Target: T1, rat serum albumin (rat, UniProt P02770 25-608)
T1 construct: Control coat in the screening ELISA; also called RSA
Test: method not stated (unpublished results); unpublished results; method and construct not stated

T1 sequence (P02770 25-608 limits assumed): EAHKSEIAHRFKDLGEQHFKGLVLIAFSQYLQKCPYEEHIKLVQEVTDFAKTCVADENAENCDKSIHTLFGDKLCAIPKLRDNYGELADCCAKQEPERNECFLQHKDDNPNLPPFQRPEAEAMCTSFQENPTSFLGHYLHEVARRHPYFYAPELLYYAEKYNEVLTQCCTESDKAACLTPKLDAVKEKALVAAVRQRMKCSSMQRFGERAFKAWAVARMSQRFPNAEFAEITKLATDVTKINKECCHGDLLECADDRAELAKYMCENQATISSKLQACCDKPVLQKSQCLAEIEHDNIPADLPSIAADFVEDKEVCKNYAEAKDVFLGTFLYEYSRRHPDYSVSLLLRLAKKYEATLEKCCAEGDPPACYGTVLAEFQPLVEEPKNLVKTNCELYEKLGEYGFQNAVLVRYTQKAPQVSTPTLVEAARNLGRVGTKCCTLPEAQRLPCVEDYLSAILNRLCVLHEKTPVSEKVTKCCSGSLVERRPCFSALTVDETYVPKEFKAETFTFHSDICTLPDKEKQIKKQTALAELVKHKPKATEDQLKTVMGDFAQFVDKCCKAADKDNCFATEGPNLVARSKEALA

With LAEAKVLANRELDKYGVSDYYKNLINNAKTVEGVKALIDEILAALP (other) [ABDwt (construct not stated; unpublished results)] as the binder, how does the Kd read?
Its Kd is 0.07 nM.
